Patent US9271946B2, “Use of a RAR antagonist or inverse agonist for the treatment of chemotherapy and/or radiation therapy side effects” (IO Therapeutics, Inc., priority 2006, dated 2016)

Experiments:
[1] = system: CPM-induced neutropenic male BDF1 mice; assay: mono-therapy and combination therapy on neutrophil recovery in CPM-induced neutropenic mice (Example 4); type: in vivo, mouse; conditions: monotherapy; CPM 150 mg/kg Day 0; VTP 194310 1 or 3 mg/kg/day oral Days −1 to 1; PEG-G-CSF 1 or 10 μg/kg s.c. Day 2
Experimental: VTP 194310 DMSO stock solution was made by weighing out VTP 194310 and dissolved in DMSO (25 mg/1.33 ml DMSO). This stock solution was then mixed with Vehicle (39.2 ml Corn Oil+0.8 ml DMSO).
The 3.0 mg/kg VTP194310 solution was made by mixing 39.2 ml Corn Oil+0.8 ml VTP 194310 DMSO Stock.
The 1.0 mg/kg VTP194310 solution was made by diluting the VTP194310 DMSO Stock 1:3 with DMSO (e.g. 1 ml DMSO+0.5 ml 4310 Stock), and then combining 39.2 ml Corn Oil+0.8 ml of the diluted VTP194310 Stock.
The 1 and 10 μg/kg PEG-G-CSF solutions were made by diluting 6 mg/ml stock with PBS.
Male BDF1 mice (C57Bl×DBA2), 7-8 weeks old, DOB: 1 Jun. 2006) were used in this experiment.
35 μl of blood (via the submandibular vein) were collected according to the scheduled time points or until the full recovery of blood cells and platelets. The blood samples were analyzed after 1:5 dilution with PBS saline containing 2% BSA (Fraction V) and 0.2 mM EDTA on the Hematology Analyzer Cell-DYN 3700 (Abbott Diagnostics).
Each group of mice were treated with vehicle, VTP 194310 at 3 mg/kg, PEG-G-CSF at 1 or 10 μg/kg, and CPM at 150 mg/kg. The mean numbers of total white blood cells (WBC), neutrophils, lymphocytes, red blood cells (RBC) and platelets and standard error (SE) for data obtained for each treated group are shown in FIG. 4. […] Combination treatment with VTP 194310 and PEG-G-CSF further increased recovery.

[2] = system: CPM-induced leukopenic male BDF1 mice; assay: cyclophosphamide-induced mouse model of leukopenia, blood cell recovery (Example 1); type: in vivo; conditions: 10 μg/kg s.c. at day 2
Description: Mice purchased from Charles River Laboratories (Wilmington, Mass.) were housed individually in micro-isolater cages in a 12-hour light/dark cycle. They were housed under pathogen-free conditions, and received a normal standard diet and water ad libitum. They were acclimated for one week at the Association for Assessment and Accreditation of Laboratory Animal Care (AAALAC) accredited animal facility (Allergan Inc., Irvine, Calif.) prior to experiments. Study designs were approved by the Institutional Animal Care and Use Committee. Body weights were monitored throughout each study. Weight of the mice was in the range of 22-27 g at the day of treatment initiation. The mice were healthy, not previously used in other experimental procedures.
Leukopenia was induced in male BDF1 mice (C57Bl×DBA2, 7.5-12 weeks) by an intra-peritoneal (i.p.) injection of 200 mg/kg Cyclophosphamide (CPM, Sigma-Aldrich, Saint Louis, Mo.) in 0.2 ml saline. The effect of VTP 194310 on leukocyte recovery was evaluated by oral gavage of animals with 1 mg/kg of VTP 194310 as indicated in the results section. VTP 194310 (dissolved in DMSO) was diluted through peanut oil as the vehicle (dosed at 5 ml/kg). Control mice were given DMSO and vehicle alone. As a positive control, granulocytopoiesis was stimulated in CPM-treated mice by a single sub-cutaneous injection of 10 μg/kg pegylated recombinant methionyl human granulocyte colony-stimulating factor (PEG-r-metHuG-CSF) (Neulasta, Pegfilgrastim; Amgen, Thousand Oaks, Calif.) on day 2. Three separate experiments were performed.
Peripheral blood (60 μl) was collected under anaesthesia from the retroorbital sinus of the mice with heparinized capillary tubes and transferred to EDTA-coated microtainer tubes (Becton Dickinson, Franklin Lakes, N.J.). White cell, neutrophil, and lymphocyte counts were obtained for at least three mice per group by diluting the blood 1:4 with PBS containing 5% bovine serum albumin (Fraction V; Sigma, Saint Louis, Mo.), and by using an Advia 120 Hematology System (Bayer HealthCare Diagnostics Division, Tarrytown, N.Y.).

[3] = system: 5-FU-induced neutropenic male BDF1 mice; assay: monotherapy and combination therapy on neutrophil recovery in 5-FU-induced neutropenic mice (Example 5); type: in vivo, mouse; conditions: monotherapy; 5-FU 150 mg/kg i.v. Day 0; VTP 194310 3 mg/kg/day oral Days 2 to 4; PEG-G-CSF 10 μg/kg s.c. Day 5, 6, or 7
Experimental: VTP194310 DMSO Stock solution was made by weighing out VTP194310 and dissolving it in DMSO (25 mg/1.33 ml DMSO).
The Vehicle solution was made by mixing 39.2 ml Corn Oil+0.8 ml DMSO.
The 3.0 mg/kg VTP194310 solution was made by mixing 39.2 ml Corn Oil+0.8 ml VTP 194310 DMSO Stock solution.
The 150 mg/kg 5-FU solution was made by weighing out 187.5 mg 5-FU and mixing it with 10 g saline.
The 10 μg/kg PEG-G-CSF solution was made by diluting 6 mg/ml stock with PBS.
Male BDF1 mice (C57Bl×DBA2), 9 weeks old, DOB: 26 Jun. 2006) were used in this experiment.
Each group of mice were treated with 150 mg/kg 5-FU intravenously on Day 0, vehicle or VTP194310 orally by gavage at 3 mg/kg/day on Days 2 to 4, and/or subcutaneously with PEG-G-CSF at 10 μg/kg on Days 5, 6, or 7 according to the regimens listed in the table. The mean numbers of total white blood cells (WBC), neutrophils, lymphocytes, red blood cells (RBC) and platelets and standard error (SE) of data obtained for each treated group are shown in FIG. 6.

B1: PEG-G-CSF: pegylated recombinant methionyl human granulocyte colony-stimulating factor (Neulasta, Pegfilgrastim; Amgen) (protein, chains of the INN, looked up)
chain: TPLGPASSLPQSFLLKCLEQVRKIQGDGAALQEKLCATYKLCHPEELVLLGHSLGIPWAPLSSCPSQALQLAGCLSQLHSGLFLYQGLLQALEGISPELGPTLDTLQLDVADFATTIWQQMEELGMAPALQPTQGAMPAFASAFQRRAGGVLVASHLQSFLEVSYRVLRHLAQP
modifications: N-terminal Met; PEG
Q: B1 was tested. Which “neutrophil recovery relative to control” value [1] did it give?
A: enhanced neutrophil recovery

Q: What about the “blood neutrophil level at day 8” value [2] of the same molecule?
A: declined by day 8 to numbers that were observed in the control group

Q: And the “day of peak blood neutrophil level” value [2]?
A: 7 days

Q: And the “number of blood neutrophils” value [2]?
A: sharp rise

Q: And the “recovery of neutrophils relative to control” value [3]?
A: little effect
